B1: GNB5 (parent)
chain: YYPSGDAFASGSDDATCRLYDLRA
B2: BRF1 (parent)
chain: CTACGSVLEDNIIVSEVQFVESSG

In the supplement of paper PMC10567573 one finds protein stability index data, which are given here for 94 variants.
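Note: lentivirally expressed fusions sorted by FACS into six bins by GFP to DsRed ratio, PSI derived from sequencing read proportions per bin multiplied by bin number.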

The first series covers variants of B1. Kind of series: protein stability index of a GFP-peptide fusion (GPS, HEK-293T) (PSI 1-6); higher = more stable. The settings on record: c terminus: a fixed tail appended.
Consider YYPSGDAFASGSDDATCRVYDLRA [L19V], for which the protein stability index is 2.56. In the case of YYPSGDAFASGSDDATCRYYDLRA [L19Y], the protein stability index stood at 2.57. As to YYPSGDAFASGSDDATCRPYDLRA [L19P], the protein stability index was determined as 2.61. In the case of YYPSGDAFASGSDDATCRKYDLRA [L19K], the protein stability index is 2.77.

On to YYPSGDAFASGSDDATCRWYDLRA [L19W], for which the protein stability index is 2.46. As for YYPSGDAFASGSDDATCRTYDLRA [L19T], the protein stability index is 3.07.

Turning to YYPSGDAFASGSDDATCRAYDLRA [L19A], the protein stability index turned out to be 2.87. Take YYPSGDAFASGSDDATCRSYDLRA [L19S]: the protein stability index came to 2.87. As to YYPSGDAFASGSDDATCREYDLRA [L19E], the protein stability index was 3.39. Same read-out and setting: the result for YYPSGDAFASGSDDATCRLYDSRA [L22S] reads 3.08; that for YYPSGDAFASGSDDATCRLYDRRA [L22R], 2.75; that for YYPSGDAFASGSDDATCRLYDIRA [L22I], 2.78. As for YYPSGDAFASGSDDATCRLYDWRA [L22W], the protein stability index is 2.26.

On to YYPSGDAFASGSDDATCRLYDCRA [L22C], for which the protein stability index stood at 3.17. Turning to YYPSGDAFASGSDDATCRLYDHRA [L22H], the protein stability index came to 3.09. For YYPSGDAFASGSDDATCRLYDNRA [L22N], the protein stability index stood at 2.84. For YYPSGDAFASGSDDATCRLYDARA [L22A], the protein stability index is 2.8. YYPSGDAFASGSDDATCRLYDDRA [L22D]: the protein stability index was 3.03. On the same count and under the same terms, the result for YYPSGDAFASGSDDATCRLYDMRA [L22M] reads 2.49; that for YYPSGDAFASGSDDATCRLYDERA [L22E], 3.34; that for YYPSGDAFASGSDDATCRLYDTRA [L22T], 2.73. With YYPSGDAFASGSDDATCRLYDPRA [L22P], the protein stability index was 2.85. Turning to YYPSGDAFASGSDDATCRLYDGRA [L22G], the protein stability index stood at 2.65.

For the variant YYPSGDAFASGSDDATCRLYDVRA [L22V], the protein stability index is 2.62. As to YYPSGDAFASGSDDATCRLYDYRA [L22Y], the protein stability index was determined as 2.68.

As to YYPSGDAFASGSDDATCRLYDQRA [L22Q], the protein stability index was determined as 2.55.

For the variant YYPSGDAFASGSDDATCRLYDFRA [L22F], the protein stability index stood at 2.64. On the same count and under the same terms, the result for YYPSGDAFASGSDDATCRLYDKRA [L22K] reads 3.07.

In the next series the parent is B2. The description is as above. The conditions noted are these: c terminus: a fixed tail appended.
For PTACGSVLEDNIIVSEVQFVESSG [C1P], the protein stability index came out at 3.29.

On to ETACGSVLEDNIIVSEVQFVESSG [C1E], for which the protein stability index amounted to 4.86.

For WTACGSVLEDNIIVSEVQFVESSG [C1W], the protein stability index turned out to be 2.51. As to YTACGSVLEDNIIVSEVQFVESSG [C1Y], the protein stability index was 3.18. With FTACGSVLEDNIIVSEVQFVESSG [C1F], the protein stability index came out at 2.63. As to ITACGSVLEDNIIVSEVQFVESSG [C1I], the protein stability index was 1.46. Regarding DTACGSVLEDNIIVSEVQFVESSG [C1D], the protein stability index came to 4.46. Same read-out and setting: the same measure for MTACGSVLEDNIIVSEVQFVESSG [C1M]: 3.6.

For the variant GTACGSVLEDNIIVSEVQFVESSG [C1G], the protein stability index is 4.18.

Regarding RTACGSVLEDNIIVSEVQFVESSG [C1R], the protein stability index came to 3.83. As for VTACGSVLEDNIIVSEVQFVESSG [C1V], the protein stability index stood at 2.2.

As to NTACGSVLEDNIIVSEVQFVESSG [C1N], the protein stability index amounted to 3.65.

As for HTACGSVLEDNIIVSEVQFVESSG [C1H], the protein stability index was 3.6. STACGSVLEDNIIVSEVQFVESSG [C1S]: the protein stability index was determined as 4.13.

As to LTACGSVLEDNIIVSEVQFVESSG [C1L], the protein stability index is 3.56. On the same count and under the same terms, the same measure for ATACGSVLEDNIIVSEVQFVESSG [C1A]: 3.88; for TTACGSVLEDNIIVSEVQFVESSG [C1T]: 4.16. In the case of QTACGSVLEDNIIVSEVQFVESSG [C1Q], the protein stability index was determined as 4.3. On the same count and under the same terms, the same measure for CMACGSVLEDNIIVSEVQFVESSG [T2M]: 2.78; for CQACGSVLEDNIIVSEVQFVESSG [T2Q]: 3.48. Still for that read-out and setting: the same measure for CFACGSVLEDNIIVSEVQFVESSG [T2F]: 2.12; for CYACGSVLEDNIIVSEVQFVESSG [T2Y]: 2.21; for CSACGSVLEDNIIVSEVQFVESSG [T2S]: 2.87. In the case of CGACGSVLEDNIIVSEVQFVESSG [T2G], the protein stability index stood at 2.33. Turning to CWACGSVLEDNIIVSEVQFVESSG [T2W], the protein stability index is 2.54.

With CHACGSVLEDNIIVSEVQFVESSG [T2H], the protein stability index is 3.

Regarding CNACGSVLEDNIIVSEVQFVESSG [T2N], the protein stability index was determined as 3.02.

As to CVACGSVLEDNIIVSEVQFVESSG [T2V], the protein stability index is 1.86. With CAACGSVLEDNIIVSEVQFVESSG [T2A], the protein stability index is 3.64.

Take CRACGSVLEDNIIVSEVQFVESSG [T2R]: the protein stability index stood at 3.17. As for CLACGSVLEDNIIVSEVQFVESSG [T2L], the protein stability index is 2.75. Take CIACGSVLEDNIIVSEVQFVESSG [T2I]: the protein stability index amounted to 2.52. Still for that read-out and setting: the result for CEACGSVLEDNIIVSEVQFVESSG [T2E] reads 3.25. Consider CPACGSVLEDNIIVSEVQFVESSG [T2P], for which the protein stability index stood at 2.72. As to CDACGSVLEDNIIVSEVQFVESSG [T2D], the protein stability index is 3.42.

For the variant CKACGSVLEDNIIVSEVQFVESSG [T2K], the protein stability index was 3.48. Regarding CTANGSVLEDNIIVSEVQFVESSG [C4N], the protein stability index was determined as 4.37.

For CTALGSVLEDNIIVSEVQFVESSG [C4L], the protein stability index came to 3.15. Same read-out and setting: the same measure for CTAKGSVLEDNIIVSEVQFVESSG [C4K]: 4.04; for CTAPGSVLEDNIIVSEVQFVESSG [C4P]: 2.68; for CTAEGSVLEDNIIVSEVQFVESSG [C4E]: 4.21.

As to CTAHGSVLEDNIIVSEVQFVESSG [C4H], the protein stability index is 4.04. As to CTAFGSVLEDNIIVSEVQFVESSG [C4F], the protein stability index turned out to be 2.78.

For the variant CTAIGSVLEDNIIVSEVQFVESSG [C4I], the protein stability index is 3.35. Consider CTAMGSVLEDNIIVSEVQFVESSG [C4M], for which the protein stability index turned out to be 3.88. For CTAGGSVLEDNIIVSEVQFVESSG [C4G], the protein stability index amounted to 3.74. CTAAGSVLEDNIIVSEVQFVESSG [C4A]: the protein stability index came out at 3.49. Consider CTADGSVLEDNIIVSEVQFVESSG [C4D], for which the protein stability index stood at 4.7. On to CTHCGSVLEDNIIVSEVQFVESSG [A3H], for which the protein stability index was found to be 2.56. For CTRCGSVLEDNIIVSEVQFVESSG [A3R], the protein stability index was found to be 2.9. As to CTNCGSVLEDNIIVSEVQFVESSG [A3N], the protein stability index amounted to 4.03. Still for that read-out and setting: the result for CTLCGSVLEDNIIVSEVQFVESSG [A3L] reads 2.08. On the same count and under the same terms, the result for CTVCGSVLEDNIIVSEVQFVESSG [A3V] reads 3.22.

As to CTECGSVLEDNIIVSEVQFVESSG [A3E], the protein stability index is 3.6. As to CTQCGSVLEDNIIVSEVQFVESSG [A3Q], the protein stability index amounted to 3.88.

Take CTKCGSVLEDNIIVSEVQFVESSG [A3K]: the protein stability index stood at 4.04.

As to CTICGSVLEDNIIVSEVQFVESSG [A3I], the protein stability index worked out at 2.06. Consider CTGCGSVLEDNIIVSEVQFVESSG [A3G], for which the protein stability index is 2.37. CTFCGSVLEDNIIVSEVQFVESSG [A3F]: the protein stability index worked out at 2.4.

Turning to CTWCGSVLEDNIIVSEVQFVESSG [A3W], the protein stability index worked out at 3.08.

Turning to CTYCGSVLEDNIIVSEVQFVESSG [A3Y], the protein stability index turned out to be 2.5. As for CTMCGSVLEDNIIVSEVQFVESSG [A3M], the protein stability index was found to be 2.87. With CTSCGSVLEDNIIVSEVQFVESSG [A3S], the protein stability index is 2.91. Turning to CTPCGSVLEDNIIVSEVQFVESSG [A3P], the protein stability index stood at 3.47.

On to CTDCGSVLEDNIIVSEVQFVESSG [A3D], for which the protein stability index was 2.28. In the case of CTTCGSVLEDNIIVSEVQFVESSG [A3T], the protein stability index amounted to 3.07.
